Data reported in publication PMC11097083 (Molecular & Cellular Proteomics : MCP, 2024).

Columns and labels:
[1] = target: galectin-4 C-terminal carbohydrate recognition domain (Gal-4C) (human); assay: cross-linking
[2] = target: galectin-4 C-terminal carbohydrate recognition domain (Gal-4C) (human); assay: AUC
[3] = target: the molecule itself; assay: cross-linking

| stoichiometry N [1] | stoichiometry N [2] | Molecule | stoichiometry N [3] |
| --- | --- | --- | --- |
| 2 | 2 | galectin-4 C-terminal carbohydrate recognition domain (Gal-4C) (domain or fragment) |  |
|  |  | galectin-4 (Gal-4), full-length (natural protein, human, UniProt P56470 1-323, looked up) MAYVPAPGYQPTYNPTLPYYQPIPGGLNVGMSVYIQGVASEHMKRFFVNFVVGQDPGSDVAFHFNPRFDGWDKVVFNTLQGGKWGSEERKRSMPFKKGAAFELVFIVLAEHYKVVVNGNPFYEYGHRLPLQMVTHLQVDGDLQLQSINFIGGQPLRPQGPPMMPPYPGPGHCHQQLNSLPTMEGPPTFNPPVPYFGRLQGGLTARRTIIIKGYVPPTGKSFAINFKVGSSGDIALHINPRMGNGTVVRNSLLNGSWGSEEKKITHNPFGPGQFFDLSIRCGLDRFKVYANGQHLFDFAHRLSAFQRVDTLEIQGDVTLSYVQI | 2 |
|  |  | Gal-4NM (R67H), N-terminal domain mutant of full-length Gal-4 (natural protein, human, UniProt P56470 1-323, looked up) MAYVPAPGYQPTYNPTLPYYQPIPGGLNVGMSVYIQGVASEHMKRFFVNFVVGQDPGSDVAFHFNPHFDGWDKVVFNTLQGGKWGSEERKRSMPFKKGAAFELVFIVLAEHYKVVVNGNPFYEYGHRLPLQMVTHLQVDGDLQLQSINFIGGQPLRPQGPPMMPPYPGPGHCHQQLNSLPTMEGPPTFNPPVPYFGRLQGGLTARRTIIIKGYVPPTGKSFAINFKVGSSGDIALHINPRMGNGTVVRNSLLNGSWGSEEKKITHNPFGPGQFFDLSIRCGLDRFKVYANGQHLFDFAHRLSAFQRVDTLEIQGDVTLSYVQI | 2 |
|  |  | Gal-4CM (R240H), C-terminal domain mutant of full-length Gal-4 (natural protein, human, UniProt P56470 1-323, looked up) MAYVPAPGYQPTYNPTLPYYQPIPGGLNVGMSVYIQGVASEHMKRFFVNFVVGQDPGSDVAFHFNPRFDGWDKVVFNTLQGGKWGSEERKRSMPFKKGAAFELVFIVLAEHYKVVVNGNPFYEYGHRLPLQMVTHLQVDGDLQLQSINFIGGQPLRPQGPPMMPPYPGPGHCHQQLNSLPTMEGPPTFNPPVPYFGRLQGGLTARRTIIIKGYVPPTGKSFAINFKVGSSGDIALHINPHMGNGTVVRNSLLNGSWGSEEKKITHNPFGPGQFFDLSIRCGLDRFKVYANGQHLFDFAHRLSAFQRVDTLEIQGDVTLSYVQI | 2 |
